This is an account of results in publication PMC8018780, “Two peptides targeting endothelial receptors are internalized into murine brain endothelial cells” (PLoS ONE, 2021).

Ends that are not written are not given here. Peptide text beside a SMILES is read from it. * marks the point of attachment. 5TAMRA = CN(C)c1ccc2c(c1)Oc1cc(N(C)C)ccc1C21OC(=O)c2cc(C(=O)*)ccc21

One data set has as its system bEnd.3 cells. Kind of data set: Translocation study based on fluorescence intensity measurement (Transwell, non-contact co-culture with rat astrocytes). The conditions noted are these: for Pe ("real" endothelial permeability): 1/Pe = 1/Papp,bEnd.3+filter − 1/Papp,filter, fluorescence; for Papp,F (apparent permeability through filter): cell-free collagen-coated polyester Transwell filter, 0.4 μm pores, fluorescence Ex 535/Em 585 nm. In kind it is in vitro ADME, mouse. The protocol: (§1) For the translocation studies, an in vitro contact and non-contact co-culture model was used. Forty thousand bEnd.3 cells were seeded on the upper side of the collagen-coated Transwell insert and maintained in cDMEM for 24 hours (contact co-culture) or immediately transferred into a 12-well plate in which rat astrocytes were grown for at least three weeks (non-contact co-culture). In the case of contact co-culture, 24 hours after plating the bEnd.3 approx. 150,000 rat astrocytes were seeded on the bottom side of the flipped Transwell inserts, which was coated with 5 μg/ml poly-L-lysine (P1524, Sigma-Aldrich), and incubated for 2 hours at 37°C. The inserts were then flipped back to the original side and placed into a 12-well plate with rat astrocytes. The cells were cultured in cDMEM at 37°C with 5% CO2/95% air and saturated humidity, and the experiments were performed 4.5–5 days post-seeding of bEnd.3 cells. The medium was switched to phenol red-free cDMEM the day before the experiment.
(§2) These experiments were performed using the bEnd.3 cells that were cultured with rat astrocytes in a non-contact co-culture model and with cell-free filters as negative controls. On the day of the experiment, the inserts were transferred to a new astrocyte-free 12-well plate, and the medium was changed on both the apical and basolateral sides. The apical side of the membrane was exposed to 10 μM MTfp or GYR for 2 hours while the plates were gently shaken to overcome unstirred water-layer effects. After the 2 hours exposure time, 150 μL sample was taken from both apical and basolateral compartments, and the fluorescence intensity was read by a CLARIOstar® Plus microplate reader (BMG Labtech) (λExc = 535 nm, λEm = 585 nm, Bandwidth = 20 and 30 nm, respectively). The translocation of the peptides is presented as permeability coefficient (a concentration independent transport parameter) and was determine by using the clearance principle.
(§3) The following equations [27] were used to calculate the permeability coefficient: Papp[cm/s]=B/T⋅vb/A⋅t⋅60 (1) Where Papp is the apparent permeability, B is the relative fluorescence unit (RFU) at time t, T is the top chamber RFU at time 0 (constant), Vb is the volume of the bottom channel [ml], A is the cross-section area of the membrane [cm^2], and t is the time [min].
(§4) The translocation experiments were performed three times in technical triplicates, and the data are represented as mean (SD).

Assay in data set [1]: as above
In kind it is in vitro ADME, mouse. Conditions: mouse; bEnd.3 non-contact co-culture with rat astrocytes, polyester Transwell 0.4 μm; 10 μM apical, 2 h, shaken, apical to basolateral; fluorescence (RFU values) Ex 535/Em 585 nm; mean (SD) of three independent experiments with triplicates; read-out: Papp, bEnd.3+F (apparent permeability through bEnd.3 grown on filter). The protocol:
as §1, §2, §3, §4

Data set [2] deals with T1, LRP-1 purified from human placenta (Homo sapiens, UniProt Q07954).
T1 construct: LRP-1 was purified from human placenta according to a previously described protocol; from tissue; host or cells: human placenta
T1 sequence (Q07954 20-4544): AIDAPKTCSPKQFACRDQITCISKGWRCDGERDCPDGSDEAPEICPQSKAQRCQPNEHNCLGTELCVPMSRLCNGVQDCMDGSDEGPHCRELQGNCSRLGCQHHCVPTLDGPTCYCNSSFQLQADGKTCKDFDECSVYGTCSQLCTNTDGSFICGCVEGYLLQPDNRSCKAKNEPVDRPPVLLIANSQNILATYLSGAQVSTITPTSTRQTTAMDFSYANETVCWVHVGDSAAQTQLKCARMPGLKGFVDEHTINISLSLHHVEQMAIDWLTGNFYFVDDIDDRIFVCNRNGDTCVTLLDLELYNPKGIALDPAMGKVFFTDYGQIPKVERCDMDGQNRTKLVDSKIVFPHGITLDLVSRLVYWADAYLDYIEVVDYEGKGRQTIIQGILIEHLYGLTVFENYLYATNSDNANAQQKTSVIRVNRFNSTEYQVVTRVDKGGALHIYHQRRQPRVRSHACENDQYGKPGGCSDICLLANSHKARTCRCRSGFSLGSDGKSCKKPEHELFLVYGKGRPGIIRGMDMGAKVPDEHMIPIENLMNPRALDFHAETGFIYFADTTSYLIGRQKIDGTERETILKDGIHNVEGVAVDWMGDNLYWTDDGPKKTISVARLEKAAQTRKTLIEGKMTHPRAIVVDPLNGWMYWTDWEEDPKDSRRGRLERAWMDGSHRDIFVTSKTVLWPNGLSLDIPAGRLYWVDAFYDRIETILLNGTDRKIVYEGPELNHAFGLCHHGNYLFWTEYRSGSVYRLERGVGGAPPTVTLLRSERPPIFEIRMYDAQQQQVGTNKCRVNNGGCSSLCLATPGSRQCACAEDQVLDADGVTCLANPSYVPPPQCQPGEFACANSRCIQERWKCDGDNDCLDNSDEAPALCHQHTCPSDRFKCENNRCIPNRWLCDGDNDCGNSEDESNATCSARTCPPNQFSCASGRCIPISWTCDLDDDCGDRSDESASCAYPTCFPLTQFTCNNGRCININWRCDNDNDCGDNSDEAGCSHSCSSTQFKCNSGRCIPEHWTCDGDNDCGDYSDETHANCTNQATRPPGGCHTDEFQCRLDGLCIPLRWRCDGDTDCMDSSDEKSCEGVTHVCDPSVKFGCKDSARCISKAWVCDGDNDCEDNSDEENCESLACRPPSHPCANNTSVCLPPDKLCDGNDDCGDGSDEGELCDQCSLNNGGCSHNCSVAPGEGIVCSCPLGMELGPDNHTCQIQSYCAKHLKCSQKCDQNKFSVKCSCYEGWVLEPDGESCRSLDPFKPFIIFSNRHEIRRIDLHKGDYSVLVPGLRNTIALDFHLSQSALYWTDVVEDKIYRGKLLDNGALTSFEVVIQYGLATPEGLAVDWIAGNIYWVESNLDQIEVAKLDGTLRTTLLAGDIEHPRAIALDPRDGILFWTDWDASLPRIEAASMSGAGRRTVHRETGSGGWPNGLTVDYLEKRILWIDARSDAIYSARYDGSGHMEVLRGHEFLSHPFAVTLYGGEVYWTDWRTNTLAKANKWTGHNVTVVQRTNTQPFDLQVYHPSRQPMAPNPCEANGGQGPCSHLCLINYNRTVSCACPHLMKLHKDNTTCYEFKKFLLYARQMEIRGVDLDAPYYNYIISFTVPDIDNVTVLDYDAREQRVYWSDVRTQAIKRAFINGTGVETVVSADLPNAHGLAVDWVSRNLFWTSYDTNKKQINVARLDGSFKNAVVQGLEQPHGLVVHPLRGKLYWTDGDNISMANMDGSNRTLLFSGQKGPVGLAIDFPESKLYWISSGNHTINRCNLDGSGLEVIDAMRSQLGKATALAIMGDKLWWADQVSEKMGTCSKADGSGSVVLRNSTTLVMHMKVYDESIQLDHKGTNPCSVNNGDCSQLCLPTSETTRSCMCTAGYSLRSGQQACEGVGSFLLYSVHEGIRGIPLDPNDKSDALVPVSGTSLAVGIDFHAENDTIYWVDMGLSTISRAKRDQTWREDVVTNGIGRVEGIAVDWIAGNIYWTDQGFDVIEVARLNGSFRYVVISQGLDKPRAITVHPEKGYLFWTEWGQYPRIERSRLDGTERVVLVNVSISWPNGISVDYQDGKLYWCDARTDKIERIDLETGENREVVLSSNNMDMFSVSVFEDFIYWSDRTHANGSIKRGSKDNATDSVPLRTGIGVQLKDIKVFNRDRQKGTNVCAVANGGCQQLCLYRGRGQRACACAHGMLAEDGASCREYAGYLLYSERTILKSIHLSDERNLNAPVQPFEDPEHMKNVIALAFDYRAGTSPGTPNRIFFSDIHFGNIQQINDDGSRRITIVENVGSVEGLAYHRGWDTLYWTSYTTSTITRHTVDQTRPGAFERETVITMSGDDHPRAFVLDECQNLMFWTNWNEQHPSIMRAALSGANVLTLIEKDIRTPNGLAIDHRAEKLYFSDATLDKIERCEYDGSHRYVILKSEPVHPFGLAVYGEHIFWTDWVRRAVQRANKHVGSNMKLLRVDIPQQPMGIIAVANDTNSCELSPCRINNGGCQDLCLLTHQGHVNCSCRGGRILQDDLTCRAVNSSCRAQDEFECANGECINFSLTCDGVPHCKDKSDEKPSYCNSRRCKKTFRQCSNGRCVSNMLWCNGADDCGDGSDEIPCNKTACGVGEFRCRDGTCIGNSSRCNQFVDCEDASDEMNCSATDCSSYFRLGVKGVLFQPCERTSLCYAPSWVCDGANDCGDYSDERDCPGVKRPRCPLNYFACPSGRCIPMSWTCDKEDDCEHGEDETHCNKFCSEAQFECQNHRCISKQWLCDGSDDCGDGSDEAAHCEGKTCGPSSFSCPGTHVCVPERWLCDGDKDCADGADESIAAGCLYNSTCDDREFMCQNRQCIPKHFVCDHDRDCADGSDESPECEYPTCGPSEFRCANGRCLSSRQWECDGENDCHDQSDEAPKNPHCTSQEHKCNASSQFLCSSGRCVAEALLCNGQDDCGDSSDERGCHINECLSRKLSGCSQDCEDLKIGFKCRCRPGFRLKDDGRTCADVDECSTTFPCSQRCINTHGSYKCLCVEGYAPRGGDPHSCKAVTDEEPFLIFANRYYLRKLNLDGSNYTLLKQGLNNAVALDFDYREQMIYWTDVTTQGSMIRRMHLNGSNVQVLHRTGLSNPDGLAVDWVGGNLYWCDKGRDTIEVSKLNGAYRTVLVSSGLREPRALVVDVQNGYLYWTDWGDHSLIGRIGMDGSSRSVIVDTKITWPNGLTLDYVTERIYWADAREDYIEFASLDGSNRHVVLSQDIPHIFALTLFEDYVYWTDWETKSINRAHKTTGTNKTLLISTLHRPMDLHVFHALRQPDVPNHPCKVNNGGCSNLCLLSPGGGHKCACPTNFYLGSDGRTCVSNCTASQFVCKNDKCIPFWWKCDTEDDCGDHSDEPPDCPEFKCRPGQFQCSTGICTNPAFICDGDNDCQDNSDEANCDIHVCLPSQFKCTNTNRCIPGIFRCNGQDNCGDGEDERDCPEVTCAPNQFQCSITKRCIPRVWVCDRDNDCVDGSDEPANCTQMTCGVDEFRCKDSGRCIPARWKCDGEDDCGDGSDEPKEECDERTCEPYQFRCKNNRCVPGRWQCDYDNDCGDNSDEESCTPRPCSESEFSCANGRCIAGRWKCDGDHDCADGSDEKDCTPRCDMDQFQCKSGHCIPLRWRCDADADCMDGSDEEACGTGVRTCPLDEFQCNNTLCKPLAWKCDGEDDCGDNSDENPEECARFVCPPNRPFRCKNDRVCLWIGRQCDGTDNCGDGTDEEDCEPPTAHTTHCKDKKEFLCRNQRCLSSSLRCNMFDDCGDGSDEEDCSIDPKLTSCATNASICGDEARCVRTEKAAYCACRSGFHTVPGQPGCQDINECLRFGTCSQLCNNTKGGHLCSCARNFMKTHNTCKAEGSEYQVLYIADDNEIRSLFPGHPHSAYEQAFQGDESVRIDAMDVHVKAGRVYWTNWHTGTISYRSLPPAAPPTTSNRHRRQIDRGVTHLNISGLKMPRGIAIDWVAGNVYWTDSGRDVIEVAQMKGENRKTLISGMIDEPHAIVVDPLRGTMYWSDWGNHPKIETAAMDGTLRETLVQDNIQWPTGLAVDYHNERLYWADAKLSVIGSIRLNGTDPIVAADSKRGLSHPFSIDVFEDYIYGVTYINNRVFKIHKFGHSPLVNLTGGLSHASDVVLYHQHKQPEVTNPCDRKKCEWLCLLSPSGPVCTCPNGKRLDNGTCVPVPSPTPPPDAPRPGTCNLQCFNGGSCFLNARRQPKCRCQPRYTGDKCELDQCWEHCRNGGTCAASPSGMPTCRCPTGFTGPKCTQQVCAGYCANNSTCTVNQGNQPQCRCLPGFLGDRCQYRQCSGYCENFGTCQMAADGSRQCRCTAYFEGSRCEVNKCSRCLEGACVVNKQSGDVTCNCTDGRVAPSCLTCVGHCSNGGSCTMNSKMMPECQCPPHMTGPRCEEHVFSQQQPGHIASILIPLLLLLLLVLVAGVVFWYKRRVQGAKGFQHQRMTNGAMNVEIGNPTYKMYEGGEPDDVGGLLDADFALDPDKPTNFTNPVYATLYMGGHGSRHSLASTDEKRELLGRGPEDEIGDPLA
As to the kind of experiment: SPR binding to immobilized LRP-1 (Biacore 3000, CM5 chip). The conditions noted are these: unlabeled peptide, 0.25-4 μM, 5 μL/min, 25°C, HEPES buffer pH 7.4, Langmuir 1:1 global fit. The protocol:
(§5) The binding affinity analysis of the MTf and GYR peptides was performed using the Biacore 3000 system (Cytiva, UK) equipped with a CM5 sensor chip. The sensor chip was initially activated by injection of 0.2 M 1-ethyl-3-(3-dimethylaminopropyl) carbodiimide hydrochloride and 0.05 M N-hydroxysuccinimide in water. Recombinant human and mouse TfR protein (SinoBiological, Inc., Beijing, PRC) was purchased with a His-tag and immobilized on the sensor chip at 58 fmol/mm^2. LRP-1 was purified from human placenta according to a previously described protocol and immobilized to densities of 0.025 fmol/mm^2. The remaining carboxylate groups were blocked with 1 M ethanolamine. The MTf and GYR peptides were injected for binding to the immobilized TfR or LRP-1 protein at 5 μL/min at 25°C in 10 mM HEPES, 150 mM NaCl, 1.5 mM CaCl2, 1 mM EGTA, and 0.005% Tween 20 (pH 7.4) at five different concentrations (0.25 μM, 0.5 μM, 1 μM, 2 μM and 4 μM). The reference flow channel (FC1) was activated and blocked but without immobilized TfR or LRP-1. The dissociation constant (KD) values were calculated using the BIAevaluation 4.1 software (Cytiva, UK) using the predefined Langmuir 1:1 interaction model and fitted using a drifting baseline with global fitting to the curves of the considered concentration range.
On the technique in general: In SPR one partner is held on a chip, and binding of the other changes the refractive index at the surface.

The target of data set [3] is T2, Recombinant mouse TfR protein (mTfR) (Mus musculus, UniProt Q62351).
T2 construct: His-tag; purchased SinoBiological, Inc., Beijing, PRC
Kind of data set: SPR binding to immobilized mouse TfR (Biacore 3000, CM5 chip). The conditions noted are these: unlabeled peptide, 0.25-4 μM, 25°C, pH 7.4, Langmuir 1:1 global fit. Here is the method:
as §5

The mark [4] stands for this setting: 10 μM apical, 2 h, mean (SD) of three independent experiments with triplicates.
The mark [5] stands for this setting: alternative calculation, 10 μM apical, 120 min.
The mark [6] stands for this setting: 10 μM apical, 2 h, shaken, apical to basolateral, mean (SD) of three independent experiments with triplicates.

`CC[C@H](C)[C@H](NC(=O)[C@H](CC(N)=O)NC(=O)[C@H](Cc1c[nH]cn1)NC(=O)[C@@H](NC(=O)[C@@H]1CCCN1C(=O)[C@H](CCCNC(=N)N)NC(=O)[C@H](Cc1ccc(O)cc1)NC(=O)CN)C(C)C)C(=O)N[C@@H](CCCNC(=N)N)C(=O)NCC(=O)N[C@@H](Cc1c[nH]cn1)C(=O)N[C@@H](Cc1c[nH]c2ccccc12)C(=O)N[C@@H](C)C(=O)N1CCC[C@H]1C(=O)NCC(=O)N[C@@H](CCCCNC(=O)c1ccc2c(c1)C(=O)OC21c2ccc(N(C)C)cc2Oc2cc(N(C)C)ccc21)C(N)=O` [GYR-TAMRA] (H-GYRPVHNIRGHWAPGK(5TAMRA)-NH2): the “Pe ("real" endothelial permeability)” value in the data set with bEnd.3 cells (setting [4]) is given as 15.17 (1.83) x 10^−6 cm/s. In the data set on bEnd.3 cells (setting [5]), the “Papp (bEnd.3 + filter), calculated concentrations based on a standard curve” value is 6.71 ×10⁻⁶ cm/s; the “Papp (bEnd.3 + filter), calculated final basal concentration and the 10 µM initial apical concentration” value is 6.31 ×10⁻⁶ cm/s. The “Papp, bEnd.3+F (apparent permeability through bEnd.3 grown on filter)” value with bEnd.3 cells (bEnd.3 non-contact co-culture with rat astrocytes, polyester Transwell 0.4 μm, 10 μM apical, 2 h, shaken, apical to basolateral, fluorescence (RFU values) Ex 535/Em 585 nm, mean (SD) of three independent experiments with triplicates) is reported as 6.64 (1.16) x 10^−6 cm/s. Moreover, in the data set on bEnd.3 cells (setting [6]), the “Papp,F (apparent permeability through filter)” value is listed as 12.82 (3.11) x 10^−6 cm/s.

`CC[C@H](C)[C@H](NC(=O)[C@H](CCCNC(=N)N)NC(=O)[C@@H](NC(=O)[C@@H](NC(=O)[C@H](Cc1ccccc1)NC(=O)[C@@H]1CCCN1C(=O)[C@@H](NC(=O)[C@H](CC(=O)O)NC(=O)CNC(=O)[C@H](CCCNC(=N)N)NC(=O)[C@H](CC(N)=O)NC(=O)[C@H](CCC(=O)O)NC(=O)[C@@H](NC(=O)[C@H](CC(C)C)NC(=O)[C@H](CS)NC(=O)[C@H](CCCNC(=N)N)NC(=O)[C@H](Cc1ccccc1)NC(=O)c1ccc2c(c1)C(=O)OC21c2ccc(N(C)C)cc2Oc2cc(N(C)C)ccc21)C(C)C)C(C)C)C(C)C)[C@@H](C)O)C(=O)N[C@@H](CCCNC(=N)N)C(N)=O` [MTfp-TAMRA] (5TAMRA-FRCLVENRGDVPFVTRIR-NH2): the Papp A→B at 2 h, 10 µM in data set [1] was 2.55 ×10⁻⁶ cm/s. In addition, the “Pe ("real" endothelial permeability)” value in the data set with bEnd.3 cells (setting [4]) is reported as 4.57 (0.64) x 10^−6 cm/s. For the same compound, the “Papp,F (apparent permeability through filter)” value in the data set with bEnd.3 cells (setting [6]) was 5.86 (1.27) x 10^−6 cm/s.

One may read the Kd as the concentration at which binding is half-saturated. Compound FRCLVENRGDVPFVTRIR-NH2 [MTfp] displayed a Kd in data set [2] of 0.00057 µM.

Turning to GYRPVHNIRGHWAPGK-NH2 [GYR], the equilibrium dissociation constant (Kd) in data set [2] was 0.1 µM; in data set [3], 1000 µM. Further, the “Remaining peptide most likely trapped inside the filter membrane or in the endothelial cell layer” value in the data set on bEnd.3 cells (100% minus collected) was found to be 1.7%.
